Experimental data taken from publication PMC7278938, “The MKK-Dependent Phosphorylation of p38α Is Augmented by Arginine Methylation on Arg49/Arg149 during Erythroid Differentiation” (International Journal of Molecular Sciences, 2020).

Columns and labels:
Flag-p38α wild type [1] = biological target: T1, Flag-p38α wild type (UniProt Q16539 1-360); test: co-IP; Flag-p38α immunoprecipitated with anti-Flag antibodies and protein G agarose at 4 °C from lysates (1 mg) of p38α-knockdown K562 cells after AraC (1 μM, 5 h); lysis buffer 150 mM NaCl, 20 mM Tris pH 7.4, 0.2% Triton X-100; partners detected by Western blot and quantified; in Figure 6D with or without HA-PRMT1; settings: partners not purified
T1 construct: also called p38α WT; WT; source: K562 p38α-knockdown cells, transfected (pFlag-CMV2-p38α), in lysate
T1 sequence (Q16539 whole entry): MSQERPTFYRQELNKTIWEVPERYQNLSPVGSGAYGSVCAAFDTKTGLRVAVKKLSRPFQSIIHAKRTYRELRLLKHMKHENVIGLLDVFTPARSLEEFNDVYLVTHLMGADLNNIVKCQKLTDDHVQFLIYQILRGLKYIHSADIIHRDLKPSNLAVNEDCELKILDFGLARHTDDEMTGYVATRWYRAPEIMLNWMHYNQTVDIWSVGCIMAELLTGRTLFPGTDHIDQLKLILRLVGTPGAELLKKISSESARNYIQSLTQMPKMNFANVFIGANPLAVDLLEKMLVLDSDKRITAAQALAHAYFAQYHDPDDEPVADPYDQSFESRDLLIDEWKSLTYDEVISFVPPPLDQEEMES

Flag-p38α wild type [2] = biological target: T1, Flag-p38α wild type; test: cell-based or functional assay
[3] = biological target: Flag-p38α R49/149K mutant (UniProt Q16539 1-360, R49/149K | R49/149K); test: cell-based or functional assay
Chain of Flag-p38α R49/149K mutant (Q16539 other isoform, or with tags, fused parts or gaps R49/149K | R49/149K | R49/149K | R49/149K | mutant): as the sequence (Q16539 whole entry) above, with R49K, R149K counted along it

fold change of the interaction with HA-PRMT1 against without (Flag-p38α wild type [1]): 1.7 fold
sorbitol (150 mM)-induced activation phosphorylation of Flag-p38α at 0.5 h (Western blot with anti-phospho-p38) (Flag-p38α wild type [2]): ~4 fold
sorbitol (150 mM)-induced activation phosphorylation of Flag-p38α at 0.5 h (Western blot with anti-phospho-p38) [3]: ~2 fold
B1: MAPK kinase 3 (MKK3) (enzyme, human (endogenous in K562), UniProt P46734 1-347, looked up)
chain: MESPASSQPASMPQSKGKSKRKKDLRISCMSKPPAPNPTPPRNLDSRTFITIGDRNFEVEADDLVTISELGRGAYGVVEKVRHAQSGTIMAVKRIRATVNSQEQKRLLMDLDINMRTVDCFYTVTFYGALFREGDVWICMELMDTSLDKFYRKVLDKNMTIPEDILGEIAVSIVRALEHLHSKLSVIHRDVKPSNVLINKEGHVKMCDFGISGYLVDSVAKTMDAGCKPYMAPERINPELNQKGYNVKSDVWSLGITMIEMAILRFPYESWGTPFQQLKQVVEEPSPQLPADRFSPEFVDFTAQCLRKNPAERMSYLELMEHPFFTLHKTKKTDIAAFVKEILGEDS
notes: MKK3 (MAPK kinase 3), endogenous in human K562 cells, detected with anti-MKK3 (Cell Signaling #5674); source: endogenous, K562 lysate
